According to US20220251167A1 (published 2022):

Target: T1, DNAJB1-PRKACA fusion protein peptide on HLA-A*68:02 (human)
T1 peptide: EIFDRYGEEV
Experiment: multimer staining
Source text: Jurkat cells were engineered to express the FLC-P8R-4 TCR.

B1: P9R-4 (TCR)
alpha TRAV16*01 TRAJ4*01 CDR3: CALDMFSGGYNKLIF
beta TRBV15*01 TRBJ2-7*01 CDR3: CATSRVKTSGGYEQYF
- binding result: recognises
